Our source for the % PLA-positive cells (spread cells, high mechanical inputs) values is publication PMC7612964.

The assay has as its target Flag-NLS-Actin wt. As to the kind of experiment: proximity ligation.

“endogenous BRM (from UniProt P51531 1-1590) (natural protein)” gave a % PLA-positive cells (spread cells, high mechanical inputs) of 94.7%.
